Test results taken from patent US20210032299A1 (Eli Lilly, published 2021).
Starred links: 1 amine or outer side, 2 acyl side, 3 side chain; linkers in the order of their positions; H or OH if unused. Non-standard residues stand in square brackets, D forms with d. Groups on a side chain read outwards from the residue. No end group written: not given here. *: point of attachment. C20 diacid = O=C(O)CCCCCCCCCCCCCCCCCCC(=O)*; γGlu = O=C(O)[C@H](CCC(=O)[*:2])N[*:1]; 4Pal = N[C@@H](Cc1ccncc1)C(=O)O; αMeL = CC(C)C[C@](C)(N)C(=O)O; AEEA = NCCOCCOCC(=O)O; Aib = CC(C)(N)C(=O)O

T1: human glucose-dependent insulinotropic peptide receptor (human, UniProt P48546 22-466)
T1 sequence (looked up): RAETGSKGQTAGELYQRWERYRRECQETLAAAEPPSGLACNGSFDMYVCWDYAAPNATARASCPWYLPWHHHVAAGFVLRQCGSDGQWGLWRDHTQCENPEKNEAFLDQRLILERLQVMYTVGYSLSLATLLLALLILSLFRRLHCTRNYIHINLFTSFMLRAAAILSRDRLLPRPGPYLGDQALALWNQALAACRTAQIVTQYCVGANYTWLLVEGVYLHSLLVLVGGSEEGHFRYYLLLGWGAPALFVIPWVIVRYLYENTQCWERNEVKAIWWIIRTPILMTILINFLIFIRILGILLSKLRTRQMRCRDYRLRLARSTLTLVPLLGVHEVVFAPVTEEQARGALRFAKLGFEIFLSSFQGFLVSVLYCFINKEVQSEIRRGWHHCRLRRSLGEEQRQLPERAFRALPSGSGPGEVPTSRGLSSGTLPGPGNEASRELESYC


Legend:
Assay in all cases: cell-based or functional assay
[1] = target: human glucagon receptor (human, UniProt P47871 26-477)
[2] = target: human GLP-1 receptor (human, UniProt P43220 24-463)
[3] = target: T1, human glucose-dependent insulinotropic …

Chain of human glucagon receptor (P47871 26-477): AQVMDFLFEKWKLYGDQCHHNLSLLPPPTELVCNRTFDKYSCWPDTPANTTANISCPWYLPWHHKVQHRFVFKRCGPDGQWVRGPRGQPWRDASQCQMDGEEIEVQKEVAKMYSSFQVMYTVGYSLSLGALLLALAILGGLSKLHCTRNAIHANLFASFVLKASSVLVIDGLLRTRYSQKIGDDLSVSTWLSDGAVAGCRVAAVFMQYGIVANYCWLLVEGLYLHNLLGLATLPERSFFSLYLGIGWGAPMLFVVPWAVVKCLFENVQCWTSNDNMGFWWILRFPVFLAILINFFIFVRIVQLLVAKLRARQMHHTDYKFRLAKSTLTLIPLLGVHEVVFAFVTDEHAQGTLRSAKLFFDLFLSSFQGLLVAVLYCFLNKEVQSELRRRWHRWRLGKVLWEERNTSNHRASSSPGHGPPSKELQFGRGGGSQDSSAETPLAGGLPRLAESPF

| Binder | hGcgR cAMP Rel EC50 [1] | hGLP1R cAMP Rel EC50 [2] | hGIPR cAMP Rel EC50 [3] |
| --- | --- | --- | --- |
| YAEGTFISDYSIAMDKIHQQDFVNWLLAQKGKKNDWKHNITQ-NH2 (ligand) [GIP(1-42)-NH2] | > 5000 nM |  |  |
| YXEGTFISDYSILLDKKAQXDFVNWLLAQGPSSGAPPPS (D-Ala2; K17((2-[2-(2-Amino-ethoxy)-ethoxy]-acetyl)2-(γ-Glu)-CO-(CH2)18-CO2H); Aib20; C-terminal amide) [Example 1] | 575 nM | > 5000 nM | 0.0476 nM |
| YXEGTFISDYSILLDKKAQXDFVNWLLAQGPSSGAPPPS (D-Ala2; K17((2-[2-(2-Amino-ethoxy)-ethoxy]-acetyl)2-(γ-Glu)-CO-(CH2)16-CO2H); Aib20; C-terminal amide) [Example 2] | 608 nM | > 5000 nM | 0.0123 nM |
| YXEGTFISDYSILLDKKHQXDFVNWLLAQGPSSGAPPPS (D-Ala2; K17((2-[2-(2-Amino-ethoxy)-ethoxy]-acetyl)2-(γ-Glu)-CO-(CH2)18-CO2H); Aib20; C-terminal amide) [Example 9] | > 5000 nM | > 100 nM | 0.165 nM |
| Y[Aib]EGTFISDYSI[αMeL]LDKK([AEEA-AEEA-γGlu-C20 diacid])HQ[Aib]DFVE[4Pal]LLEAGPSSGAPPPS-NH2 (N-terminus assumed; SMILES CC[C@H](C)[C@H](NC(=O)[C@H](Cc1ccccc1)NC(=O)[C@@H](NC(=O)CNC(=O)[C@H](CCC(=O)O)NC(=O)C(C)(C)NC(=O)[C@@H](N)Cc1ccc(O)cc1)[C@@H](C)O)C(=O)N[C@@H](CO)C(=O)N[C@@H](CC(=O)O)C(=O)N[C@@H](Cc1ccc(O)cc1)C(=O)N[C@@H](CO)C(=O)N[C@H](C(=O)N[C@@](C)(CC(C)C)C(=O)N[C@@H](CC(C)C)C(=O)N[C@@H](CC(=O)O)C(=O)N[C@@H](CCCCN)C(=O)N[C@@H](CCCCNC(=O)COCCOCCNC(=O)COCCOCCNC(=O)CC[C@H](NC(=O)CCCCCCCCCCCCCCCCCCC(=O)O)C(=O)O)C(=O)N[C@@H](Cc1c[nH]cn1)C(=O)N[C@@H](CCC(N)=O)C(=O)NC(C)(C)C(=O)N[C@@H](CC(=O)O)C(=O)N[C@@H](Cc1ccccc1)C(=O)N[C@H](C(=O)N[C@@H](CCC(=O)O)C(=O)N[C@@H](Cc1ccncc1)C(=O)N[C@@H](CC(C)C)C(=O)N[C@@H](CC(C)C)C(=O)N[C@@H](CCC(=O)O)C(=O)N[C@@H](C)C(=O)NCC(=O)N1CCC[C@H]1C(=O)N[C@@H](CO)C(=O)N[C@@H](CO)C(=O)NCC(=O)N[C@@H](C)C(=O)N1CCC[C@H]1C(=O)N1CCC[C@H]1C(=O)N1CCC[C@H]1C(=O)N[C@@H](CO)C(N)=O)C(C)C)[C@@H](C)CC) [Example 3] | 1250 nM | > 5000 nM | 0.0178 nM |
| Y[Aib]EGTFISDYSILLDKK([AEEA-AEEA-γGlu-C20 diacid])AQ[Aib]DFVNWLLAQGPSSGAPPPS-NH2 (N-terminus assumed; SMILES CC[C@H](C)[C@H](NC(=O)[C@H](CO)NC(=O)[C@H](Cc1ccc(O)cc1)NC(=O)[C@H](CC(=O)O)NC(=O)[C@H](CO)NC(=O)[C@@H](NC(=O)[C@H](Cc1ccccc1)NC(=O)[C@@H](NC(=O)CNC(=O)[C@H](CCC(=O)O)NC(=O)C(C)(C)NC(=O)[C@@H](N)Cc1ccc(O)cc1)[C@@H](C)O)[C@@H](C)CC)C(=O)N[C@@H](CC(C)C)C(=O)N[C@@H](CC(C)C)C(=O)N[C@@H](CC(=O)O)C(=O)N[C@@H](CCCCN)C(=O)N[C@@H](CCCCNC(=O)COCCOCCNC(=O)COCCOCCNC(=O)CC[C@H](NC(=O)CCCCCCCCCCCCCCCCCCC(=O)O)C(=O)O)C(=O)N[C@@H](C)C(=O)N[C@@H](CCC(N)=O)C(=O)NC(C)(C)C(=O)N[C@@H](CC(=O)O)C(=O)N[C@@H](Cc1ccccc1)C(=O)N[C@H](C(=O)N[C@@H](CC(N)=O)C(=O)N[C@@H](Cc1c[nH]c2ccccc12)C(=O)N[C@@H](CC(C)C)C(=O)N[C@@H](CC(C)C)C(=O)N[C@@H](C)C(=O)N[C@@H](CCC(N)=O)C(=O)NCC(=O)N1CCC[C@H]1C(=O)N[C@@H](CO)C(=O)N[C@@H](CO)C(=O)NCC(=O)N[C@@H](C)C(=O)N1CCC[C@H]1C(=O)N1CCC[C@H]1C(=O)N1CCC[C@H]1C(=O)N[C@@H](CO)C(N)=O)C(C)C) [Example 8] | 295 nM | > 5000 nM | 0.0268 nM |
